Experimental findings from the DeepSol protein solubility set are described below.

The nature of this data set: soluble on expression in E. coli; label from the status in PepcDB or PDB records.
Regarding “MGSSHHHHHHSSGLVPRGSHMSVPLYGFTSICGRRPEMEDAVSTIPRFLQSSSGSMLDGRFDPQSAAHFFGVYDGHGGSQVANYCRERMHLALAEEIAKEKPMLCDGDTWLEKWKKALFNSFLRVDSEIESVAPETVGSTSVVAVVFPSHIFVANCGDSRAVLCRGKTALPLSVDHKPDREDEAARIEAAGGKVIQWNGARVFGVLAMSRSIGDRYLKPSIIPDPEVTAVKRVKEDDCLILASDGVWDVMTDEEACEMARKRILLWHKKNAVAGDASLLADERRKEGKDPAAMSAAEYLSKLAIQRGSKDNISVVVVDLKPRRKLK”, the “soluble on expression in E. coli” value was “soluble”. Turning to “MSLDKHLLVKRTLGCVCAATLMGAALATHHDSLNTVKAEEKTVQVQKGLPSIDSLHYLSENSKKEFKEELSKAGQESQKVKEILAKAQQADKQAQELAKMKIPEKIPMKPLHGPLYGGYFRTWHDKTSDPTEKDKVNSMGELPKEVDLAFIFHDWTKDYSLFWKELATKHVPKLNKQGTRVIRTIPWRFLAGGDNSGIAEDTSKYPNTPEGNKALAKAIVDEYVYKYNLDGLDVDVEHDSIPKVDKKEDTAGVERSIQVFEEIGKLIGPKGVDKSRLFIMDSTYMADKNPLIERGAPYINLLLVQVYGSQGEKGGWEPVSNRPEKTMEERWQGYSKYIRPEQYMIGFSFYEENAQEGNLWYDINSRKDEDKANGINTDITGTRAERYARWQPKTGGVKGGIFSYAIDRDGVAHEGHHHHHH”, the “soluble on expression in E. coli” value is recorded as “soluble”. For the sequence “MTTPPPRMLPSGDTAITVEFGRDISDESNRRVLALDRKLKQAPIAGILETVPTYRSLLVHYDPETIGFGALSDQLTALAHTSDESETVAKRRWRIPVCYGGEHGIDLEDAAQALNITPDALVARHAAGDYRVAMIGFTPGWSYLSGLDPALAMPRRQAPRLHTPAGTISVGGIQTGIQCLAGPSGWHLLGRTPVRTYQLHREPIFLLEPGDAISFAQIDAKEFAERDDAASHGEVVAELLSALEHHHHHH”, the “soluble on expression in E. coli” value was “soluble”. Regarding “MSLSKKTQINLKIERAKEEDLPKLVDLYLRAYKGLEEYAYTHPKDVKSYLKWLWNRDKEGIFLAKVDGKIVGFGAGDANWFSRREGKRVGAIHEIVVDPEYQGHGVGTALMNTILEYFKKKGLDTAELWVGDENYKAINFYKKFGFQESGRYNYWIRMIKGIITITTDPNSSSVDKLAAALEHHHHHH”, the “soluble on expression in E. coli” value is given as “soluble”.

For the sequence “NALRRDPNLPVHIRGWLHKQDSSGLRLWKRRWFVLSGHCLFYYKDSREESVLGSVLLPSYNIRPDGPGAPRGRRFTFTAEHPGMRTYVLAADTLEDLRGWLRALGRASRAEGDDYGQPRSPAR”, the “soluble on expression in E. coli” value is given as “soluble”. As for “QVRQSPQSLTVWEGETTILNCSYEDSTFDYFPWYRQFPGKSPALLIAISLVSNKKEDGRFTIFFNKREKKLSLHITDSQPGDSATYFCAATGSFNKLTFGAGTRLAVSPY”, the “soluble on expression in E. coli” value is “soluble”. “MQQVFNVSVPVPDDVVIISKEEYLNLLSDNEQGKWWDIDNLQELLGIGRSKLINDILLNPDIKKEVDLSINPNGFIVYPKGKGSRYKILATKARKYFEDNFGS”: the “soluble on expression in E. coli” value is recorded as “not soluble”. For the sequence “MKITLSKRIGLLAFLLPCALALSTTVHAETNKLVIESGDSAQSRQHAAMEKEQWNDTRNLRQKVNKRTEKEWDKADAAFDNRDKCEQSANINAYWEPNTLRCLDRRTGRVITPLEHHHHHH”, the “soluble on expression in E. coli” value is “not soluble”.

For “QWGSMRMPSDRISSGMAFSSVAQEAGFQNDDIILAVDGRPVDALASGFMRSVIQARQVEVLRQGRREIVHVPHDMMKRVLKANSGFMSIQVPFVIDSVMPQGTAYACQLKAGDSITAVNGKLMPDASDVIGAIRSHAGDTIALSIARAGEELTITLPVDTGGLIGVSLRPLDAIYTIDHIRYSLFEAIPAGIAQGMGTMRSYVSDMKYVFTKEGAGQIGGFGTLGSLFPASWNWPQFWAMTALLS”, the “soluble on expression in E. coli” value is listed as “not soluble”. Consider “MGHHHHHHSHKKLGLKVGIEIHQQLDTKHKLFCLCPTLTREVEESNFEFFRYLRLKRSEIGEEDRAAKEEVERSRRFIYKYYDTTCLVEADEEPPREVNREALLIAIQVAKMLNMEVVDEVHVMRKIVIDGSNTTGFQRTALVAFGGFLEVDGKRVGVATLCLEEEACRKVEDGEGYAVYSLDRLGIPLVEIGTEPDIDSPEMAKKVAARLGMILRSTGKVKRGLGTIRQDVNISIRDGARVEIKGVQELDILDKIVEYEVLRQVNLLKIR”, for which the “soluble on expression in E. coli” value is reported as “soluble”.

With “MRAAQALPQTAHVSHFGHGPRLVLALHCTIAHSGAWKGLTRILGEEAQFTAPDMLSHGRSPDWDGQGCFQDRILGIARTCLTEAPMDVIGHSFGATVALRLAVEHPERVRSLTLIEPVFFAVARQDAPELIDSHASDAQPYLDALAAGDHALAARLFNRMWSTADSPRWPDLPEATRAAMIRGIHVVPTMDAALFDDTAGLLAPGRLDRAAMPVLLLRGALTHPVMQAISMGLQRRLPDAVEMVIEGAGHMLPITHPDETAAHIRALWSRTG”, the “soluble on expression in E. coli” value is reported as “not soluble”.

For the sequence “MAHHHHHHMGLKRLAKAAKITSKHMLLLNRREPYKPVTSDRVMIENRRRLEDFEAKNAEGIVFVPDTALPPWQKSIATNLKQQATQMNFRGFRVRVADKQDEPGFPTHFR”, the “soluble on expression in E. coli” value is given as “soluble”. The entry for “MSLVQSAVLGFPRIGPNRELKKATEGYWNGKITVDELFKVGKDLRTQNWKLQKEAGVDIIPSNDFSFYDQVLDLSLLFNVIPDRYTKYDLSPIDTLFAMGRGLQRKATETEKAVDVTALEMVKWFDSNYHYVRPTFSKTTQFKLNGQKPVDEFLEAKELGIHTRPVLLGPVSYLFLGKADKDSLDLEPLSLLEQLLPLYTEILSKLASAGATEVQIDEPVLVLDLPANAQAAIKKAYTYFGEQSNLPKITLATYFGTVVPNLDAIKGLPVAALHVDFVRAPEQFDEVVAAIGNKQTLSVGIVDGRNIWKNDFKKSSAIVNKAIEKLGADRVVVATSSSLLHTPVDLNNETKLDAEIKGFFSFATQKLDEVVVITKNVSGQDVAAALEANAKSVESRGKSKFIHDAAVKRRVASIDEKMSTRAAPFEQRLPEQQKVFNLPLFPTTTIGSFPQTKDIRINRNKFNKGTISAEEYEKFINSEIEKVIRFQEEIGLDVLVHGEPERNDMVQYFGEQINGYAFTVNGWVQSYGSRYVRPPIIVGDLSRPKAMSVKESVYAQSITSKPVKGMLTGPITCLRWSFPRDDVDQKTQAMQLALALRDEVNDLEAAGIKVIQVDEPALREGLPLREGTERSAYYTWAAEAFRVATSGVANKTQIHSHFCYSDLDPNHIKALDADVVSIEFSKKDDANYIAEFKNYPNHIGLGLFDIHSPRIPSKDEFIAKISTILKSYPAEKFWVNPDCGLKTRGWEETRLSLTHMVEAAKYFREQYKNEGHHHHHH” is “soluble”.

“TLAYKEGFYYKPRIDYELLEKYGEGLIALTACLKGVPTYYASINEVKKAEEWVKKFKDIFGDDLYLELQANNIPEQEVANRNLIEIAKKYDVKLIATQDAHYLNPE”: the “soluble on expression in E. coli” value is “soluble”. Consider “AFINAHTHFEFSNNKASFDYGSFSGWLGSVLNNGGAILENCQGAIQNAISTQLKSGVGSVGAISNHLIEVNLLKESPLNAVVFLEFLGSSYSLEKLKAFEAKFKELKDLEDKKLKAALAVHAPYSVQKDMALSVIQLAKDSQSLLSTHFLESLEELEWVENSKGWFENFYQHFLKESHFKSLYKGANDYIDMFKDTHTLFVHNQFASLEALKRIKSQVKNAFLITCPFSNRLLSGQALDLERTKEAGLSVSVATDGLSSNISLSLLDELRAFLLTHNMPLLELAKIALLGATRHGAKALALNNG”, for which the “soluble on expression in E. coli” value is recorded as “not soluble”.

As to “MVEEQLSLSGVEEIAPKIETPKIEKRTVKERRQQVLTVLIHMLHSERGMERMTTARLAKEVGVSEAALYRYFPSKTKMFEALIEHIESTLLSRITASMRNETQTMNRIHDILQTILDFARKNPGLTRVLTGHALMFEEAQLQARVAQFFDRLEMQFVNILQMRKLREGRAFNVDERIIASHLVTLCEGQFMRYVRTNFRLNSSQSFEQQWRFIEPLFA”, the “soluble on expression in E. coli” value was “not soluble”.

Turning to “MSLNHLNDKVNEIKDNFYGLIGHAYLEKYITKPIVDEDKLRFLYTMLAEKLPKKDTKLFTLSALLVDAALEIHEAVSLHNIQTDPIKKNRQLNVLAGDYYSSLYYYLLADSRHLPIIQVFSHSIQEINEYKMKLYDGKNIDFDEVKNNVDKVDTFLLQNLAEHFQLTTWKKAISVFFHLKRLVHEREAWINGKATPLMKAIVTELFGSNRPVDELKKDDQLQVLELWEEKVEEGKDHLLEHVKALLPKFERFFVDHLNDLFGPDYIHEKVAEEGEGHHHHHH”, the “soluble on expression in E. coli” value was “soluble”. For “MAKTKDKSIFVSSVDSDSDIEEIIMPPKPPVEVIQLDDSDDECQDICKPIYNKKVHKDPIVRVSYRQRIPESYFPGISTSLINVQREHNNRSKYDTWGSNSCSEPRISISNIERLEKPSYHEARRVPVFERLERSREISNGRNNQNPIRFNHKFVPPINRQTPLFNNQQLLVNVPFNEHHPTFLEPRPFYRSNVNEYNAGGLNRGSFRKMGRLNMEIVRDNDDFEEHFLAPNFPAKSASIDRRVDDSLSSNSYLRSGMIMASSERLEDPRFSGRLPVFARQINNQEINNDNFYQNSICYNHNNYPSNLESRVSFPFEARHHDADGLNRGRYQVMEHVNMGIMRNSEDFEDYDITQTDQDNHFYNDKDSGKHHRHRHRSKNNKKHKKHYDRNESGNSSECREEDDYEISNPSEKRHERKKRQRSSHRKESACVDEDNYILDEDRFYQQESDEYHNSLEMEREYEHGMDVGVKKEHSYKCDDIARNARKRARLTDDDMARREELFKEWSYSKEIVDGVTQLFGGPPRESERHQKKQKELVFEADRTAMHALSIRSGALVKARLLEIHYATGCHLIFLEEVKRGGYTYVELKGDPEHIKNAQKMIDDMVIDEHYIHDGRESIVYFYNAPHELRNTRGFDLNCRSIEKYCGIIIEKMREVFGIGGYVSTAPLKLTGSVNSIHMARETMQSKTKRFLDEEKFKETVEHCTPISFYRKIIGRCGENLKTIEKVTRTAIVFKRSFDNNEACFSIRGRTDNIKQAIEKIEEITHENQPADDDPGIFQVRVPENMVARLIGRHGVEINRIRSESKAKCYLNAIRGNLDDKFMVCSGGVEEAAYAAYLTKVKIGIIDPKVIQFNSDDFNNLSKVKPMEDPRLVMLKKRYAERKECK”, the “soluble on expression in E. coli” value is reported as “soluble”. For “MAHHHHHHMEGARGSTLQVCGERHTMSLSLATALYADATRLYRLGDLHHARGAAEEALLSLSHSPHSDISDHTNHRHGDAHHEEAADSVSVGCEGSQAQQRQRHRLFGNTLLLLSSIYMAVQDYAEAERLLVTCDGYWRERLTSTHTRLSSVGTSAEVECACCSELDEGLAGVAYNRAVLRLEQLRRTPSFPASRDDGELWVAPPADLCGTDARLTYSLIPLSSTAASSGTPETLLASVMALLLDAQDRLAHTLGPPRGLLADVLHTIGVCHYEAADYIAALQAWQRSMAIRVHLQALRRRSDKNAAQRALHGGGGGECGDGTEELKLALTMEHVAQVYRLLEGRSVEALKLLDTVAATRRRYLGPTDPLCVRTLVLKGVLAAELGHTQLARALLERCSAIGGDASPETPPPSSSAYAVQEVEQ”, the “soluble on expression in E. coli” value was “soluble”. For the sequence “MSSPKISIIIPVYMAESYLHRCVDSIITQTFTDWELLLVDDGSPDHSGELCEKYASAYKSRIKAFHKPNGGVASAREFGMQQARGEYSIHVDPDDWIDSNTLEELYQQAVKEQADMVICDFMMEYPNRQIHNCQKPQLLDSSSFMHQLLQQERHGSLCNKLIRTELYHKYQLHFPEKMICWEDLYICCSILLHGCKLAYVPHALYHYDFYTNDNSMVRHTDMRGLQAQIDFCRLMQAKISPEYLPELNELKGITLITAFRNQLLNEQAIRSLFPEINDWYVTRYGHDYEKSNYYGLTLVLRGYNFKTARRRMFVAKFLVQIKNKITRML”, the “soluble on expression in E. coli” value is listed as “not soluble”.
